Reference: article PMC3496615 (Molecular Biology of the Cell, 2012)
Each block holds one molecule with its values, some of them ahead of it.

B2: GST-Ypt31p (natural protein, yeast (S. cerevisiae), UniProt P38555 1-223, looked up)
chain: MSSEDYGYDYDLLFKIVLIGDSGVGKSNLLSRFTKNEFNMDSKSTIGVEFATRTLEIDGKRIKAQIWDTAGQERYRAITSAYYRGAVGALIVYDISKSSSYENCNHWLSELRENADDNVAVGLIGNKSDLAHLRAVPTEESKTFAQENQLLFTETSALNSENVDKAFEELINTIYQKVSKHQMDLGDSSANGNANGASAPNGPTISLTPTPNENKKANGNNCC

Assays:
Irc6p = target: T1, Irc6p (Saccharomyces cerevisiae, UniProt P43615); experiment: limited proteolysis; format: binding; details: pH 8, 10 mM CaCl2, 24°C; indirect evidence
T1 sequence (P43615 1-237): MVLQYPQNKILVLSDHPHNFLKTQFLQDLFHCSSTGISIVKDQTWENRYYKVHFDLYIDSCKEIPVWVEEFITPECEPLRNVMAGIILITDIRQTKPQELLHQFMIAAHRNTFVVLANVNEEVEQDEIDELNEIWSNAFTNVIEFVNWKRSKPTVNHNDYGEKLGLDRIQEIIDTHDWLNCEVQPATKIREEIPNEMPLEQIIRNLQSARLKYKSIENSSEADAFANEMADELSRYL

GST-Ypt31p = target: B2; experiment: pull-down
[1] = target: T2, FLAG-tagged Irc6p (recombinant, purified) (yeast (S. cerevisiae), UniProt P43615 1-237); experiment: pull-down
T2 sequence (looked up): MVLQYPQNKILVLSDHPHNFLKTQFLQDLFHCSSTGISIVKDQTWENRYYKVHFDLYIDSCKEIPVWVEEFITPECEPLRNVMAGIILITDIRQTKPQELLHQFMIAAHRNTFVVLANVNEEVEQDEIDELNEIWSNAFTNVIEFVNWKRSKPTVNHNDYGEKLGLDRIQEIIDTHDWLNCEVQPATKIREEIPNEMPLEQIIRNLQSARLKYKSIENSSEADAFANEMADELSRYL

FLAG-Irc6p-K22A = target: T3, FLAG-Irc6p-K22A (yeast (S. cerevisiae), UniProt P43615 1-237, K22A); experiment: pull-down
T3 sequence (looked up): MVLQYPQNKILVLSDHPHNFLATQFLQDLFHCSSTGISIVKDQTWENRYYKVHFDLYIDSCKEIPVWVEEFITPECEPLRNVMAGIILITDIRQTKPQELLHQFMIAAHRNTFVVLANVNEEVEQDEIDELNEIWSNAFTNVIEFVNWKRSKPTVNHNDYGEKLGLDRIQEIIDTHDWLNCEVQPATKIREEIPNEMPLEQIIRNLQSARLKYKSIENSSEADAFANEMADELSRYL

binding result (GST-Ypt31p): binds
B1: FLAG-Irc6pΔC (Irc6p N-terminal region) (domain or fragment, yeast (S. cerevisiae), UniProt P43615 1-179, looked up)
chain: MVLQYPQNKILVLSDHPHNFLKTQFLQDLFHCSSTGISIVKDQTWENRYYKVHFDLYIDSCKEIPVWVEEFITPECEPLRNVMAGIILITDIRQTKPQELLHQFMIAAHRNTFVVLANVNEEVEQDEIDELNEIWSNAFTNVIEFVNWKRSKPTVNHNDYGEKLGLDRIQEIIDTHDWL

binding result (GST-Ypt31p): binds
B3: FLAG-Irc6pCT (Irc6p C-terminal region) (domain or fragment, yeast (S. cerevisiae), UniProt P43615 179-237, looked up)
chain: LNCEVQPATKIREEIPNEMPLEQIIRNLQSARLKYKSIENSSEADAFANEMADELSRYL

Further lines, the molecule ahead of its results:

Molecule: Nc1nc2c(ncn2[C@@H]2O[C@H](COP(=O)(O)OP(=O)(O)NP(=O)(O)O)[C@@H](O)[C@H]2O)c(=O)[nH]1 [GMPPNP]
limited proteolysis (chymotrypsin), protection (Irc6p): by limited proteolysis was slowed in the presence of GMPPNP (Figure S2B)

Molecule: B2
binding result [1]: binds | binding result (FLAG-Irc6p-K22A): binds
